# Data taken from the nanobody polyreactivity screen of Harvey et al. (2022).
# Assay: yeast display, Sf9 membrane polyspecificity reagent, FACS + sequencing; frameworks hold sequencing errors
# Method in brief: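 Sorting gates, low and high (top ~1%), were placed on anti-HA fluorescence to track expression and on streptavidin fluorescence to track reagent binding. A clone's polyreactivity label is taken from the gate it came out of. The reagent was 10% biotinylated, detergent-solubilized Sf9 membrane, applied for 1 hour at 4 °C to galactose-induced yeast display cells.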
row,Sequence,polyreactivity (PSR sort gate)
1,QVQLLESGGGLVQAGGSLRLSCAASGLIFRSYAMGWYRQAPGKERELVARISIRGGSTYYADSVKGRFTISRDNAKNTVYLQMNCLKPEDTAVYYCAAVGYFGGYRYDYWGQGTQVTVSS,high polyreactivity
2,QVQLLESGGGLVQAGGSLRLSCAASGNIFQVNAMGWYRQAPGKERELVASISRRGGSTNYADSVKGRFTISRDNAKNTVYLQMNSLKPEDTAVYYCAAVARRGSYLGQRLDYWGQGTQVTVSS,high polyreactivity
3,QVQLLESGGGLVQAGGSLRLSCAASGRIFRAYAMGWYRQAPGKERELVAAISWRYGSTYYADSVKGRFTISRDNAKNTVYLQMNSVKPEDTAVYYCAAEYDWPGYDYWGQGTQVTVSS,high polyreactivity
4,QVQLLESGGGLVQAGGSLRLSCAASGRILRINTMGWYRQAPGKERELVAAISWSGGTTYYADSVKGRFTISRDNAKNTVYLQMNSLKPEDTAVYYCNKAIWYAEYDYWGQGTQVTVSS,low polyreactivity
5,QVQLLESGGGLVQAGGSLRLSCAASGRTFTRNAMGWYRQAPGKERELVAAISYRVGSTYYADSVKGRFTISRDNAKNTVYLQMNSLKPEDTAVYYCATGRGHSYGGDDYWGQGTQVTVSS,high polyreactivity
6,QVQLLESGGGLVQAGGSLRLSCAASGRTFYFYVMGWYRQAPGKERELVARISWSGGSTYYADSVKGRFTISRDNSKNTVYLQMNSLKPEDTAVYYCNTVDSIPIGSGLYYYWGQGTQVTVSS,low polyreactivity
7,QVQLLESGGGLVQAGGSLRLSCAASGRTSYIYSMGWYRKAPGKEREFVADITWSGGSTYYADSVKGRFTISRDNAKNTVYLQMNSLKPEDTAVYYCNADLLSWWGVEYYYWGQGTQVTVSS,high polyreactivity
8,QVQLLESGGGLVQAGGSLRLSCAASGSIFDYNAMGWYRQAPGNERELVADITISDDSTYYADSVKGRFTISRDNAKNTVNLQMNSRQPEDTAVYYCAADIKYYWYYYYWAYAYDYWGQGTQVTVSS,high polyreactivity
9,QVQLLESGGGLVQAGGSLRLSCAASGSIFGLYAMGWYRQAPGKERELVAALTWSSGNTYYADSVKGRFTISRDNAKNTVYLQMNSLKPEDTAVYYCSARVYRYGAMDYWGQGTQVTVSS,high polyreactivity
10,QVQLLESGGGLVQAGGSLRLSCAASGSIFLLNAMGWYRQAPGKERELVASISRGGVRTNYADSEKGRFTISRDNAKNTVYLQMISLKPEDTAVYYCAAGTRPFGYRRDYWGQGTQVTVSS,high polyreactivity
11,QVQLLESGGGLVQAGGSLRLSCAASGSIFTPNNMGWYRQAPGKESEFVAAITFSGGSTYYADSVKGRFTISRDNAKNTVYLQMNSLKPEDTSVYYCAAVYPTYDWYTPAYYYWGQGTQVTVSS,low polyreactivity
12,QVQLLESGGGLVQAGGSLRLSCAASGSIFTVYAMGWYRQAPGKERELVAAITGSGGRTYYADSVKGRFTISRDNAKNTVYLQRNSLKPEDTAVYYCAATTRPGYRYEGDYWGQGTQVTVSS,low polyreactivity
13,QVQLLESGGGLVQAGGSLRLSCAASGSIFVGYAMGWYRPAPGKERELVASITTPGGSTHYADSVKGRFTISRDNAKNTVYLQMNSLKPEDTAVYYCAADSLSNGVLQYLPGYDYWGQGTQVTVSS,low polyreactivity
14,QVQLLESGGGLVQAGGSLRLSCAASGSIFVKYDMGWYRQAPGKDRELVAAIRSGASTTYADSVKGRFTISRDNAKITVYLQMNSLKPEDTAVYYCAADQRGWGYTYGKGGDYWGQGTQVTVSS,low polyreactivity
15,QVQLLESGGGLVQAGGSLRLSCAASGSIIPYYAMGWYRQAPGKESELVAAITSGGGSTYYADSVKGRFTISRDNAMNSVYLQMNSLKPEDTAVYYCAAVLTSYYGGDYWGQGTQVTVSS,low polyreactivity
16,QVQLLESGGGLVQAGGSLRLSCAASGSILFTNAMGWYRQAPGKERELVAAISSGGSTYYADSVKGRFTFSRDNAKNTVYLQMNSLKPEDTAVYYSAADQLNVGREYVEYDYWGQGTQVTVSS,low polyreactivity
17,QVQLLESGGGLVQAGGSLRLSCAASGSILIKYAMGWYRQAPGKERELVATITSGGSTYYADSVKGRFTISRDNAKNTVYLQMNSLKPEDTAVYYCATGQYYYYGIVAFFELDYWGQGTQVTVSS,low polyreactivity
18,QVQLLESGGGLVQAGGSLRLSCAASGSTFCANAMGWYRQAPGKVWELVARITYSGGSTYYADSVKGRFTISRDNAKNTVYLQMNSLKPDDTAVYFCAADLPGKFDYWGQGTQVTVSS,low polyreactivity
19,QVQLLESGGGLVQAGGSLRLSCAASGSTFKKNAMGWYRQAPGKETELVAAISGIGTRTSYADSVKGRFTISRDNAKNTVYLQMNSLKPEDTAVYYCAARYYGFPSTLKYDYWGQGTQVTVSS,high polyreactivity
20,QVQLLESGGGLVQAGGSLRLSCAASGSTFLYNAMGWYRQAPGKERELVAGIRRSGGSTYYADSVKGRFTISRDNAMNTVYLQMNSLKPEDTAVYYCNTDRTLSYQYGGYDYWGQGTQVTVSS,low polyreactivity
21,QVQLLESGGGLVQAGGSLRLSCAASGSTFWWNTMGWYRQAPGKERELVADIRPSGGGTYYADSVKGRFTISRDNAKNTVYLPMHSLKPEATAVYYCNADPKWEMGSWGQGTQVTVSS,low polyreactivity
22,QVQLLESGGGLVQAGGSLRLSCASSGYINSYYTMGWYRHATGKERVLVASIRWAGGRTYYADSVKGRFTFSRDNAKITVYLQMNSLKPEDTAVYYCNVKSSRFLDVGRMEYWGQGTQVTVSS,high polyreactivity

row,Sequence,polyreactivity (PSR sort gate)
1,QVQLLESGGGLVQAGGSLRLSSASSSFIFYSNDMGSYRQAPGKERELVAAISRRCGSTYYADSVKGRFTISRDNAKNTVFLQMNSLKPEDTAVYYCAARVGSGFDSWGQGTQVTVSS,high polyreactivity
2,QVQLLESGGGLVQAGGSLRLTCAASGFTFDLNAMGWYRQAPGKERELVAAISYSGDDTYYADSVKGRFTISRDNAKNTVYLQMNSLKPEDTAVYYCAADATWTYYQLYDYWGQGNQVTVSS,low polyreactivity
3,QVQLLESGGGLVQAGGSLRLTCAASGITFQYYAMGWYRQAPGKERELVAAITSSGVSTYYADSVKGRFTISRDNAKNTVYLQMNSLKPEDTAVYYCNTVVRGWSSSAYDYWGQGTQVTVSS,low polyreactivity
4,QVQLLESGGGLVQAGGSLRLTCAASGRTFQYNAMGWYRQAPGKERELVGAISSTGGSTYYADSVKGRFTISRDNAKNTVYLQMNSLKPEDTAVYYCARQGRYTRGDYWGQGTQVTVSS,high polyreactivity
5,QVQLLESGGGLVQAGGTLRLSCAASGYTFAWYAMVWSRQAPGKERELVAAINNGGSTSYADSVKGRFTISRDNAKNTVYLQMNSLKREDTAVYYCAARPGAHPDRLDYWGQGTQVTVSS,low polyreactivity
6,QVQLLESGGGLVQAGRSLRLSCAPSGIIFRVYAMGWYRQAPGKERELVAAISSSGGNTYYADSVKGRFTISRDNAKNTVYLQLNSLKPEDTAVYYCAAPYGQLFTQGTWYEYWGQGTQVTVSS,low polyreactivity
7,QVQLLESGGGLVQARGSLRLSCAASGSIFTYYAMGWYRQAPGIEREFVAAISRRGGSTYYADSVKGRFTISRDNAKNTVYLQMNSLKAVDTAVYYCAKDPSFTRGYKEGGGYDYWGQGTQVTVSS,high polyreactivity
8,QVQLLESGGGLVQAVGSLRLSCAASGIIFWVNAMGWYRQAPGKERELFAAIRSDGSTKYADSVKGRFTISRDNAKNTVYLLMNSLKPEDTAHYYCAKRDYSYTWLRDYYYWGQGTQVTVSS,low polyreactivity
9,QVQLLESGGVLDQAGGSLRLTCAASGSIFFTNAMGWYRQAPGKERELVAAIRQSGGSTFYADSVKGRFTISRDNAKNTVYLQLNSLKPEDTAVFYCNADGRHKWQYSSYDYWGQGTQLTVSS,low polyreactivity
10,QVQLQDSGGGLVLAGGSLRLSCSASGNISVYGSMGWYRQAPGKEREFVATIDPGTNTNYADSVKDRFTISRDNAKNTVYLQMNSLKPEDTAVYYCAVEAGSDWPYRYWGQGTQVTVSS,low polyreactivity
11,QVQLQDSGGGLVQAGGSLRLSCAASGTISYRYRMGWYRQAPRKELELVAGIRFGSITYYADSVKGRFTISRDNAKNTVYLQMNSLKPEDIAVYYCAVYQKSYRFFPYWGQGTQVTVSS,high polyreactivity
12,QVQLQDSGGGLVQAGGSLRQSYAASGYIFPSLAMGWYRQAPGKEREFVAAIGRGSTNNYADSVKGRFTISRDNAKNTAYQQMNSLKPEDTAVYYCAAAASPLTRHLYWGQGTQVTVSS,low polyreactivity
13,QVQLQDSGGGLVQAVGSQRMSCAASGYIFYFQYMGWYRQAPGKEREFVAAISDGANTNYADSVKGRFTISRDNAKNTEYLQMYCLKPEDTAVYYCAVYADENYYYIYWGQGTQVTVSS,low polyreactivity
14,QVQLQECGGGLVQAGGSLRLSCAASGNIFDADIMGWYRQAPGKERELVASVTDGGSTNYADSVKGRFTISRDNAKITVYLQLNSLKPEDTAVYYCAAIVYPDILTDFDYDYDYFYWGQGTQVTVGS,low polyreactivity
15,QVQLQEGGGGLVQAGGSLRLSCAASGYISYGDVMGWYRQAPGEERELVASIGLDATTNYADSVKGRFTISRDNAKITVYLQMNSLKPEDTAVYYCAADVGSGVLCGYWGQGTQMTVSS,high polyreactivity
16,QVQLQEIGGCLVQAGDSHRLSCAASGNIFPFTDMGWNRQAQGKERELVAAINAGSTTYYADSVKGRFTISRDNAKITVYLQLISLKPEDTAVYYCAVYYLGSGTFCYWGQGPQVTVSS,high polyreactivity
17,QVQLQEIGGGLVQAGGSLRLSCAASGYISLAKTIGLSRQAPGKEREFVASIALGSSTYYTDSVKGSFTISRDNAKTTVYLQMNRLKPEDTAVYYCAARVGASYAHDYGGQGTQVTVSS,low polyreactivity
18,QVQLQENGGGLVQAGGSLRLSCAASGTILYSLGMGWYRQAPGKRREFVASITWGTTTNYAESVKGRFTISRDNAKNSVYPQMNSLKPEDTAVYYCAAPPFGDSSYHYWGQGTQVTVSS,low polyreactivity
19,QVQLQERAAWCRRAGSLRLSCAASGNISDYYFMGWYRQAPGKERELVAAIAPGSNTYYADSVKGRFTISRDNAKNTVYLQMNSLKPEDTAVCFCGANSTQYTWFDYWGQGTQVPVSS,low polyreactivity
20,QVQLQERGGGLMQAGGSQRLSCAASGSISYYSDMGWYRQAPGTEREFVAGIGYGTTTNYADSVKGRFTTSRDNAKNTVDLQMISMKPEDTAVYYCAAYQGNGYEFYYWGQGTQVTVRS,low polyreactivity
21,QVQLQERGGGLVQAGGSLRLSCAASCTIFRFRYMGWHRQAPGKERELVAGINGGTTTYYADSVIGRFTISRDNAKNTLYLQMNSLKPDDTAVYNCAAVASRLTYYDYWGQGTQVTVSS,low polyreactivity
